Results taken from patent US20160151519A1 (JOHN HOPKINS UNIVERSITY, published 2016).
Blank lines part the entries; values can stand above or below the molecule they belong to.

B2: carcinoembryonic antigen (CEA) immunopurified from LS174T colon carcinoma cell lysate (ligand, human, UniProt P06731 35-685, looked up)
chain: KLTIESTPFNVAEGKEVLLLVHNLPQHLFGYSWYKGERVDGNRQIIGYVIGTQQATPGPAYSGREIIYPNASLLIQNIIQNDTGFYTLHVIKSDLVNEEATGQFRVYPELPKPSISSNNSKPVEDKDAVAFTCEPETQDATYLWWVNNQSLPVSPRLQLSNGNRTLTLFNVTRNDTASYKCETQNPVSARRSDSVILNVLYGPDAPTISPLNTSYRSGENLNLSCHAASNPPAQYSWFVNGTFQQSTQELFIPNITVNNSGSYTCQAHNSDTGLNRTTVTTITVYAEPPKPFITSNNSNPVEDEDAVALTCEPEIQNTTYLWWVNNQSLPVSPRLQLSNDNRTLTLLSVTRNDVGPYECGIQNELSVDHSDPVILNVLYGPDDPTISPSYTYYRPGVNLSLSCHAASNPPAQYSWLIDGNIQQHTQELFISNITEKNSGLYTCQANNSASGHSRTTVKTITVSAELPKPSISSNNSKPVEDKDAVAFTCEPEAQNTTYLWWVNGQSLPVSPRLQLSNGNRTLTLFNVTRNDARAYVCGIQNSVSANRSDPVTLDVLYGPDTPIISPPDSSYLSGANLNLSCHSASNPSPQYSWRINGIPQQHTQVLFIAKITPNNNGTYACFVSNLATGRNNSIVKSITVSASGTSPGLSA
modifications: sialofucosylated (HECA-452-reactive) O-linked glycans
notes: mature; One entry for CEA from wild-type and from CD44-knockdown LS174T cells; Used as blot band or adsorbed on microspheres; also called CD66e; CEACAM5

What was measured:
[1] = target: E-selectin-IgG Fc chimera (human) (UniProt P16581); experiment: flow-based adhesion assay, sialidase-treated against untreated PCLP-coated microbeads on 10 µg/ml E-selectin at 1 dyn/cm2
[2] = target: T1, CD66c immunopurified from LS174T colon carcinoma cell lysate (human, UniProt P40199 35-320); experiment: cell-free flow-based adhesion assay, CD66c-coated microspheres
T1 construct: mature; Blot band or adsorbed on microspheres
T1 sequence (looked up): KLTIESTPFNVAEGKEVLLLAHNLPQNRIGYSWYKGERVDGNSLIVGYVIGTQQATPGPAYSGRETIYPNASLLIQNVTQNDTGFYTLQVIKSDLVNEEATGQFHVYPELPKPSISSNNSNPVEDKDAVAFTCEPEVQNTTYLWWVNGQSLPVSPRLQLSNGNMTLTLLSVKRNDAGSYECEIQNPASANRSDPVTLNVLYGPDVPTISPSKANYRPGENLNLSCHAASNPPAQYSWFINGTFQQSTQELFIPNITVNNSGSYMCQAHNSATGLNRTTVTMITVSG

[3] = target: T2, P-selectin on CHO cells stably transfected with the phosphatidylinositol glycan-linked extracellular domain … (UniProt P16109 42-771, limits assumed, phosphatidylinositol glycan-linked); experiment: blot rolling assay: CHO-P cells perfused at 0.5 dyn/cm2 over blot of immunopurified CEA
T2 construct: extracellular domain; also called P-selectin-expressing CHO cells
T2 sequence (looked up): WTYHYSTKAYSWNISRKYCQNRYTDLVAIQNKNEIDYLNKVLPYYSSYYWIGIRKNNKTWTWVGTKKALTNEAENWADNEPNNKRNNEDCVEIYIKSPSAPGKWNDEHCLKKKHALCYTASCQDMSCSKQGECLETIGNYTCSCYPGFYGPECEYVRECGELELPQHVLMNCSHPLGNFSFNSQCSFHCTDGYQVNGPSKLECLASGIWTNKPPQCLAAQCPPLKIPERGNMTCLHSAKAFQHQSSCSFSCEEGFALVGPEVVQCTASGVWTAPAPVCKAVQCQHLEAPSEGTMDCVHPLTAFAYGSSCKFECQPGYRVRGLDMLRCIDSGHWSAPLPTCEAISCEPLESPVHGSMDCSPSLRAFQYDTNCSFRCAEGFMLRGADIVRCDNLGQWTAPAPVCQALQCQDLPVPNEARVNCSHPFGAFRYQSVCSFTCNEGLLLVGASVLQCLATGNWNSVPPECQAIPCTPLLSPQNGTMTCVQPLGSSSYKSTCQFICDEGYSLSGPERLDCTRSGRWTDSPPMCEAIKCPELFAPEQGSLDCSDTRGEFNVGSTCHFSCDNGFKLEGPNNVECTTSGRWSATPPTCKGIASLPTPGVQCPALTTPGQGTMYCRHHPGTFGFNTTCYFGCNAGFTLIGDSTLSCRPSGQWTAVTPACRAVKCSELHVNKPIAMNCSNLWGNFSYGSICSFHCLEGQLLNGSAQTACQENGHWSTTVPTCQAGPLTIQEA
Procedure: In select experiments, CHO-E cells and lymphocytes were pre-treated with an anti-E-selectin or an anti-L-selectin function blocking mAb (20 μg/ml), respectively, before use in blot rolling assays. The saturating concentration of the mAb (20 μg/ml) was maintained in the perfusion assays. Data represent the mean±S.E. of n≧3 experiments.
(§1) Fuhlbrigge et al., I 68 J. IMMUNOL. 5645-5651 (2002). The blots were placed under a parallel-plate flow chamber, and human peripheral blood lymphocytes or CHO transfectants, re-suspended at 5×10⁶ cells/ml in 90% D-PBS/I 0% glycerol, were perfused at the shear stress of 0.5 dyn/cm². Hanley et al., 20 FASEB J. 337-339 (2006); Napier et al., 282 J. BIOL. CHEM. […] Non-specific adhesion was assessed by perfusing 5 mM EDTA in the flow medium.
Although previous studies have reported that CEA and CEA-family members such as CD66c (Kuijpers, et al., 118(2) J CELL BIOL. 457-466 (1992)) bind E-selectin under static/no-flow conditions, the capacity of CEA to interact with E-selectin under physiologically relevant flow conditions as well as its potential cross-reactivity with L- and P-selectin have yet to be examined. […] The specificity of these adhesive interactions was assessed by incubating CHO-E cell suspensions or lymphocytes with an anti-E-selectin or an anti-L-selectin function-blocking mAb, respectively (FIG. 6B).

[4] = target: B2; experiment: blot rolling assay with human peripheral blood lymphocytes at 0.5 dyn/cm2
From the text: FIGS. 6A-6B provides the Western blot results from CD66e experiments. […] B: Selectin-dependent adhesion to SDS-PAGE resolved and blotted CEA immunoprecipitated from CD44-knockdown LS174T whole cell lysate. CHO-E cells, lymphocytes or CHO-P cells were perfused at the wall shear stress level of 0.5 dyn/cm² over SDS-PAGE immunoblots of immunopurified CD66e from whole cell lysate of CD44-knockdown LSI 74T cells. In select experiments, CHO-E cells and lymphocytes were pre-treated with an anti-E-selectin or an anti-L-selectin function blocking mAb (20 μg/ml), respectively, before use in blot rolling assays. The saturating concentration of the mAb (20 μg/ml) was maintained in the perfusion assays. Data represent the mean±S.E. of n≧3 experiments.
as §1, with “CHEM. 3433-3441 (2007); and Thomas et al., 283 J BIOL CHEM 15647-15655 (2008). Molecular weight markers were used as guides to aid placement of the flow chamber over stained bands of interest.” for “CHEM.”

[5] = target: B2; experiment: cell-free flow-based adhesion assay, CEA-coated microspheres
From the text: A cell-free flow-based adhesion assay (Hanley, et al., 20(2) FASEB J. 20(2), 337-339 (2006); Napier, et al., 282(6) J. BIOL. CHEM. 3433-3441 (2007)) was used to compare the adhesion of microspheres coated with CEA immunopurified from wildtype versus CD44-knockdown LS174T colon carcinoma cells to selectin substrates in shear flow. This technique allows quantitative comparisons of CEA-mediated adhesion to selectin substrates at prescribed CEA and selectin site densities under physiological flow conditions.
To test this hypothesis, the CEA-coated microspheres were perfused over purified selectin substrates under prescribed wall shear stress levels. As expected from blot rolling assays, microspheres coated with CEA from either cell type were capable of tethering and rolling over E- and L-, but not P-, selectin substrates, albeit with varying efficiencies (FIG. 8C-E). Most importantly, the extent of tethering of CD44-knockdown LS174T CEA-coated microspheres to E-selectin was lower than that of microspheres decorated with CEA from wildtype LS174T cells (FIG. 8C). […] In contrast, no difference was detected in either the extent of tethering (FIG. 8C) or the average rolling velocities (FIG. 8E) of microspheres coated with CEA from either cell type over L-selectin.

Molecule: B2
binding result [3]: no binding

B3: L-selectin on human peripheral blood lymphocytes (receptor, UniProt P14151 39-372, looked up)
chain: WTYHYSEKPMNWQRARRFCRDNYTDLVAIQNKAEIEYLEKTLPFSRSYYWIGIRKIGGIWTWVGTNKSLTEEAENWGDGEPNNKKNKEDCVEIYIKRNKDAGKWNDDACHKLKAALCYTASCQPWSCSGHGECVEIINNYTCNCDVGYYGPQCQFVIQCEPLEAPELGTMDCTHPLGNFSFSSQCAFSCSEGTNLTGIEETTCGPFGNWSSPEPTCQVIQCEPLSAPDLGIMNCSHPLASFSFTSACTFICSEGTELIGKKKTICESSGIWSNPSPICQKLDKSFSMIKEGDYNPLFIPVAVMVTAFSGLAFIIWLARRLKKGKKSKRSMNDPY
notes: whole, on cells; also called Lymphocyte (L-selectin); L-selectin-expressing human peripheral blood lymphocytes
binding result [4]: binds

B4: P-selectin-IgG Fc chimera (Fc fusion, human, UniProt P16109 42-321, looked up)
chain: WTYHYSTKAYSWNISRKYCQNRYTDLVAIQNKNEIDYLNKVLPYYSSYYWIGIRKNNKTWTWVGTKKALTNEAENWADNEPNNKRNNEDCVEIYIKSPSAPGKWNDEHCLKKKHALCYTASCQDMSCSKQGECLETIGNYTCSCYPGFYGPECEYVRECGELELPQHVLMNCSHPLGNFSFNSQCSFHCTDGYQVNGPSKLECLASGIWTNKPPQCLAAQCPPLKIPERGNMTCLHSAKAFQHQSSCSFSCEEGFALVGPEVVQCTASGVWTAPAPVCKA
notes: domain: lectin, epidermal growth factor and consensus repeat domains; From Wyeth External Research; immobilised on dishes; also called chimeric form of P-selectin-IgG Fc; not shown: human IgG1 (printed 'IgGi'); selectin domains linked to each arm of the IgG
binding result [5]: no binding (tested: 10 µg/ml P-selectin coating)

The next lines start with the values.

reduction of binding after sialidase treatment [1]: 80%
Molecule: podocalyxin-like protein (PCLP) immunopurified from LS174T colon carcinoma cell lysate (from UniProt O00592 23-558) (ligand)

binding result [2]: no binding
B1: E-selectin-IgG Fc chimera (Fc fusion, human, UniProt P16581 22-301, looked up)
chain: WSYNTSTEAMTYDEASAYCQQRYTHLVAIQNKEEIEYLNSILSYSPSYYWIGIRKVNNVWVWVGTQKPLTEEAKNWAPGEPNNRQKDEDCVEIYIKREKDVGMWNDERCSKKKLALCYTAACTNTSCSGHGECVETINNYTCKCDPGFSGLKCEQIVNCTALESPEHGSLVCSHPLGNFSYNSSCSISCDRGYLPSSMETMQCMSSGEWSAPIPACNVVECDAVTNPANGFVECFQNPGSFPWNTTCTFDCEEGFELMGAQSLQCTSSGNWDNEKPTCKA
notes: domain: lectin, epidermal growth factor and consensus repeat domains; From Wyeth External Research; immobilised on dishes (10 µg/ml for microbeads, 0.75 µg/ml for cells); also called chimeric form of E-selectin-IgG Fc; not shown: human IgG1 (printed 'IgGi'); selectin domains linked to each arm of the IgG
